Like-named read-outs stand apart in the source and are kept apart here. [ ]: non-standard residue; d: D form. APC = trans-3-aminopyrrolidine-4-carboxylic acid; ACPC = trans-2-aminocyclopentanecarboxylic acid; β3hT = C[C@@H](O)[C@H](N)CC(=O)O; β3hE = N[C@@H](CCC(=O)O)CC(=O)O

Data on five molecules can be found in US20130177981A1 (WISCONSIN ALUMNI RESEARCH FOUNDATION, published 2013).

Assay [1] concerns the target T1, gp41-5 (HIV).
T1 construct: also called gp41-5 protein construct; five-helix bundle protein
The assay can be described thus: competition FP; displacement of Flu-C38 from gp41-5.

Assay [2] concerns the target T1, gp41-5. Described as above. This is another data set of the same source.

B1: chimeric CHR α/β-peptide 8 (peptide)
peptide: Ac-TTWEAWDRAIAEYA[ACPC]RIE[ACPC]LI[APC]AAQ[β3hE]QQ[β3hE]KNE[ACPC]AL[APC]EL-NH2
modifications: not fully specified
notes: Made from 7 by replacing two β3-hArg residues with APC
A word on the Ki: it is a dissociation constant, usually derived from enzyme kinetics or from competition with a known ligand. A low value points to a stronger hold on the target. Take B1: the Ki in the assay with gp41-5 [1] was determined as 0.3 nM.

B2: chimeric α+α/β foldamer 14 (peptide)
peptide: Ac-[β3hT]TWE[ACPC]WD[APC]AIA[β3hE]YAARIEALIRAAQ[β3hE]QQ[β3hE]KNE[ACPC]AL[APC]EL-NH2
modifications: not fully specified
notes: also called compound 14
In the assay with gp41-5 [2], B2 showed a Ki of 1.4 nM.

B3: chimeric α+α/β foldamer 15 (peptide)
peptide: Ac-[β3hT]TWE[ACPC]WD[APC]AIA[β3hE]YA[ACPC]RIE[ACPC]LI[APC]AAQEQQEKNEAALREL-NH2
modifications: not fully specified
notes: also called compound 15
The molecule B3 had a Ki with gp41-5 [2] of 0.2 nM.

B4: chimeric α+α/β foldamer 13 (peptide)
peptide: Ac-TTWEAWDRAIA[β3hE]YA[ACPC]RIE[ACPC]LI[APC]AAQ[β3hE]QQ[β3hE]KNE[ACPC]AL[APC]EL-NH2
modifications: not fully specified
notes: the difference must lie in β3-residues whose bold type is lost; also called compound 13; peptide 13
Molecule B4 showed a Ki with gp41-5 [2] of 0.8 nM.

B5: chimeric α+α/β foldamer 12 (peptide)
peptide: Ac-TTWEAWD[APC]AIA[β3hE]YA[ACPC]RIE[ACPC]LI[APC]AAQ[β3hE]QQ[β3hE]KNE[ACPC]AL[APC]EL-NH2
modifications: not fully specified
notes: also called compound 12; peptide 12
B5: the affinity with gp41-5 [2] corresponds to a Ki of 8 nM.
